According to paper PMC9294600:

What follows are substances tested against HA-tagged p62 (SQSTM1) (UniProt Q13501) (assay: coimmunoprecipitation and immunoblot, quantified). Details: 293T cells; 0.2 μM Baf A1 for 6 h; parent: est. 1.0; read off a plot.

| Substance | ratio to parent |
| --- | --- |
| Flag-tagged dengue virus (DENV) capsid protein K17R | 1.1 |
| Flag-tagged dengue virus (DENV) capsid protein K6R | 0.81 |
| Flag-tagged dengue virus (DENV) capsid protein K76R | 0.22 |
